Experimental findings from patent US20110003343, “CONJUGATES OF BIOMOLECULES TO NANOPARTICLES” (LIFE TECHNOLOGIES CORPORATION, published 2011) are described below.

For series [1], the target named is Phi-29 (exo-) T373R exo- (substitutions not given), T373R (Bacteriophage phi29) (UniProt P03680). As to conditions: tpol, unit not shown; unit assumed.
For series [2], the target named is Phi-29 (exo-) T373Y exo- (substitutions not given), T373Y (Bacteriophage phi29) (UniProt P03680). Particulars: tpol, unit not shown; unit assumed.
The target of series [3] is Phi-29 (exo-) DNA polymerase exo- (substitutions not given) (Bacteriophage phi29) (UniProt P03680). As to conditions: tpol, unit not shown; unit assumed.
For series [4], the target named is T1, Phi29 DNA polymerase (HRP-treated quantum dot conjugate) (Bacteriophage phi29, UniProt P03680 P03680:1-575).
T1 chain: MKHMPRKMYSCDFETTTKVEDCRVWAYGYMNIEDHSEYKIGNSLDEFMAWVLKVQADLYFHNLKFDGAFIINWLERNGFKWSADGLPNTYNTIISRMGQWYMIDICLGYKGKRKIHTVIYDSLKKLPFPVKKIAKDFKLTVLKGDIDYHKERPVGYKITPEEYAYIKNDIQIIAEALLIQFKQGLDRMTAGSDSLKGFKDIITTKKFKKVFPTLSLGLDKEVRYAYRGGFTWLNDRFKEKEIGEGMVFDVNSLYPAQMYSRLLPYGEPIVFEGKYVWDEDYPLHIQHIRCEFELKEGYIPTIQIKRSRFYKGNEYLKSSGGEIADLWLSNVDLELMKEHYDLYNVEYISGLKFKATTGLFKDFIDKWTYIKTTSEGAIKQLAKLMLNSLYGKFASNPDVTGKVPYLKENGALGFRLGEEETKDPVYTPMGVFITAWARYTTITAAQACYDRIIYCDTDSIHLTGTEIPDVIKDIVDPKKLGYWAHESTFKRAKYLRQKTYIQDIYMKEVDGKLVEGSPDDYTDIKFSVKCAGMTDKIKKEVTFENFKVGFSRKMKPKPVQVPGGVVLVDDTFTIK
Nature of the series: FRET binding; 250 nM oligo. As to conditions: tags: His tag, label: 3' Alexa Fluor 647, hairpin with 5' overhang. The method, then:
and 40 nM of the nanoparticle-polymerase conjugates in 50 mM Tris, 50 mM NaCl and 10 mM MgCl₂. The reaction was excited at 450 nm and emission (e.g., FRET) was detected as a ratio of intensities at 605/670 (dot emission/ALEXA FLUOR 647 emission).

Series [5] deals with T2, His-tagged F-linker Phi29 DNA polymerase D169A (exo-) (Bacteriophage phi29, UniProt P03680 SEQ:27-596).
T2 chain: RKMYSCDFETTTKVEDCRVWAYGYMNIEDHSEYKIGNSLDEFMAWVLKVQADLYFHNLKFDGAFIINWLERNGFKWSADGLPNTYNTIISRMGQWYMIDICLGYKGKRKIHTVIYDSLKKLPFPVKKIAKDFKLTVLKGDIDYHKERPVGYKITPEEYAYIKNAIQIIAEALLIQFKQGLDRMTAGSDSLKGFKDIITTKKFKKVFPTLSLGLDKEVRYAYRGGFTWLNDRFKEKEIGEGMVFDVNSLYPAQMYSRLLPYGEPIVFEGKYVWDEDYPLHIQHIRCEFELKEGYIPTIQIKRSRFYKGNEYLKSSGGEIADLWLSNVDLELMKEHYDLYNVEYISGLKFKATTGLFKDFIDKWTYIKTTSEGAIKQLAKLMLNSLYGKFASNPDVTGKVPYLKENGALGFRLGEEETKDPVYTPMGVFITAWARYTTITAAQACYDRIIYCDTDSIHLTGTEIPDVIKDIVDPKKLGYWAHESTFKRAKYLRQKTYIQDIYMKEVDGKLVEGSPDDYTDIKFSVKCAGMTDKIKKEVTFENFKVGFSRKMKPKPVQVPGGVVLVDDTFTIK
Nature of the series: FRET binding; Mg/Mn buffer; untreated, GST- or UDG/UGI-treated dots. Particulars: tags: His tag and F-linker, linked to quantum dot; label: 3' Alexa Fluor 647; hairpin with 5' overhang.

Series [6] addresses T3, HP1 Phi29 DNA polymerase D12A/D66A (Bacteriophage phi29, UniProt P03680 SEQ:26-600).
T3 chain: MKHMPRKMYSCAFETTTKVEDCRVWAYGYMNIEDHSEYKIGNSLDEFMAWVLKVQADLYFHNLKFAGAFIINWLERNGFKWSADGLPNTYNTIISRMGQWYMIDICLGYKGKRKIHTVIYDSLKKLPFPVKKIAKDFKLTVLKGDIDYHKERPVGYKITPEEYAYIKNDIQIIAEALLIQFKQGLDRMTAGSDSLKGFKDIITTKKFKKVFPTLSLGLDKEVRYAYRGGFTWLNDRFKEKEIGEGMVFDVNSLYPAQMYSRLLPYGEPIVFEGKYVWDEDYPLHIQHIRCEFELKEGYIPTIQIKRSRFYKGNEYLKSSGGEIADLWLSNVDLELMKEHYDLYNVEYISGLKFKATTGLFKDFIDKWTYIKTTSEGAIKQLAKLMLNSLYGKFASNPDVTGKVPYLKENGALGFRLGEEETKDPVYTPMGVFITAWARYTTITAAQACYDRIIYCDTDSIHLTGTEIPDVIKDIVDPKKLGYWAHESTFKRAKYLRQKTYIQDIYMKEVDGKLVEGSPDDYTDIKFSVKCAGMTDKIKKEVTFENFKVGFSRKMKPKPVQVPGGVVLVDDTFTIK
Nature of the series: FRET binding; 50 mM Tris pH 7.5, 50 mM NaCl, 10 mM MgCl2, 0.5 mM MnCl2; oligo 199 or 192 used. As to conditions: tags: N-terminal His tag, linked to quantum dot; label: 3' Alexa Fluor 647; hairpin with 5' overhang.

Series [7] concerns the target T4, PKA-tagged Phi29 DNA polymerase (Bacteriophage phi29, UniProt P03680 SEQ:30-599).
T4 chain: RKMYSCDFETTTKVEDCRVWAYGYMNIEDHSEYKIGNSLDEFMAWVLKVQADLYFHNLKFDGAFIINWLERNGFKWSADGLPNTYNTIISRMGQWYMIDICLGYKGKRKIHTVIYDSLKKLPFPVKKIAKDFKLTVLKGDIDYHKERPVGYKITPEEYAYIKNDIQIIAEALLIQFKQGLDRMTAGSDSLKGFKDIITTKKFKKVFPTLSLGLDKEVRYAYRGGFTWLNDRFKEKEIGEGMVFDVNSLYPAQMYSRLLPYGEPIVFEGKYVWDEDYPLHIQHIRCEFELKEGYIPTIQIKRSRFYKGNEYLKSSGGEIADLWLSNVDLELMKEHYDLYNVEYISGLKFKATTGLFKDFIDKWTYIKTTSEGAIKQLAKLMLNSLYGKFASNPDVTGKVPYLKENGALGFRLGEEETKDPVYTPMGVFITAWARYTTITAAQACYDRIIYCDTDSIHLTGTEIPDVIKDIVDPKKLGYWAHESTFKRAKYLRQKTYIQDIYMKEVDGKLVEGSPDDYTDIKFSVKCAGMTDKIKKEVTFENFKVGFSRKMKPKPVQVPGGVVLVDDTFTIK
The series can be described thus: FRET binding. As to conditions: label: 3' Alexa Fluor 647-dC; hairpin with 5' overhang. The method, then: 50 μl of the primer/template was transferred from each well of row two into 50 μl of the sample in each well of row one.
The microtiter plate was placed on the plate reader which was set to measure fluorescence at 605 nm and 670 nm with excitation at 450 nm. The results are depicted in FIG. 11. […] The ratio of 605 nm/670 nm signals is depicted in FIG. 11C.

Series [8] deals with T2, His-tagged F-linker Phi29 DNA …. Nature of the series: FRET binding; BSA-treated dots; dATP present. As to conditions: tags: His tag and F-linker, linked to quantum dot; label: 3' Alexa Fluor 647; hairpin with 5' overhang. The source says: The binding reactions contained: 1× extension buffer, A1 nanoparticles-phi29 conjugates (or phi29 non-conjugated), oligonucleotide 229, and dATP. The binding reactions were serially diluted. […] The ratio of 605 nm/670 nm signals is depicted in FIG. 15C.

As for “CGTTAACCGCCCGCTCCTTTGCAAC / GTTGCAAAGGAGCGGGCG [stopped-flow template/primer]”, the activity in series [1] was 15 ms; in series [2] it was 14 ms; in series [3], 11 ms.

B1: AF647 hairpin (Example 15) (structured_DNA)
DNA: TTATCTTTGTGGGTGACAGGTTTTTCCTGTCACC
For the molecule B1, the binding result in series [4] is recorded as “binds”.

B2: oligo 199 (structured_DNA)
DNA: TTATCTTTGTGGGTGACAGGTTTTTCCTGTCACCC
With B2, the binding result in series [5] and in series [6] was “binds” each time.

B3: JX338 (structured_DNA)
DNA: TTATCTTTGTGGGTGACAGGTTTTTCCTGTCACCC
As to B3, in series [7], the binding result is listed as “binds”.

B4: oligo 229 (structured_DNA)
DNA: TTTTTGCGGGTGACAGGTTTTTCCTGTCACCC
With B4, in series [8], the binding result is reported as “binds”.
